Test results: publication PMC2788865

Legend:
[1] = molecular target: phospho-Thr^286-αCaMKII (mouse) (UniProt P11798); test: fluorescence polarisation
calmodulin (CaM) = test: FL-CaM fluorescence polarisation; settings: reference: αCaMKII with Ca2+/FL-CaM, no ATP; sites T286

αCaMKII, sequence (P11798 whole entry, looked up, change not shown): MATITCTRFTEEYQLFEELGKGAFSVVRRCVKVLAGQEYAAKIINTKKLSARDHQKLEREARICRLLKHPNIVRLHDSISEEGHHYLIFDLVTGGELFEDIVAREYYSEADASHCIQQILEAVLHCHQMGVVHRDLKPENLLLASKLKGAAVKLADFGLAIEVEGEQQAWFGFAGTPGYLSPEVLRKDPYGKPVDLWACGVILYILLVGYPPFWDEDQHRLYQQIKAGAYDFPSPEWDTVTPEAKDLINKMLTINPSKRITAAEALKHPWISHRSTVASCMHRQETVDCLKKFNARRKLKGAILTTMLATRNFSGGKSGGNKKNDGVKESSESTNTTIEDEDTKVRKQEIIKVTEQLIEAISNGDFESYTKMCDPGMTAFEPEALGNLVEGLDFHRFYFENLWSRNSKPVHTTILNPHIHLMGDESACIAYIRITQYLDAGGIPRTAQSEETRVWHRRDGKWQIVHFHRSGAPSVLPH
phospho-Thr^286-αCaMKII (mouse), sequence (P11798 whole entry): as the sequence (P11798 whole entry, looked up, change not shown) above

| Substance | rate constant of CaM dissociation (polarization, slow phase) after EGTA [1] | other: fluorescence polarisation of FL-CaM (calmodulin (CaM)) |
| --- | --- | --- |
| Lys^75-FL-calmodulin (FL-CaM) (from UniProt P0DP23 1-149) (natural protein) | 0.02 s⁻¹ |  |
| αCaMKII (from UniProt P11798) αCaMKII with Ca2+/FL-CaM and ATP (autophosphorylated) |  | stronger; reference 0.33 |
